For data set [1], the target named is Fe protein NifH2 of Mo-nitrogenase (Azotobacter vinelandii). Nature of the data set: SEC-MALS.
The data set “SEC-MALS” deals with the molecule itself. The data set is described as follows: SEC-MALS. For orientation: SEC sorts molecules by how far they enter the pores of the column.

Molecule “Fe protein NifH2 of Mo-nitrogenase (natural protein)” returned a stoichiometry N (chains per oligomer) in data set [1] of 2.

B1: FeSII protein (Shethna protein II) of Azotobacter vinelandii (natural protein)
chain: MATIYFSSPLMPHNKKVQAVAGKRSTLLGVAQENGVKIPFECQDGNCGSCLVKITHLDGERIKGMLLTDKERNVLKSVGKLPKSEEERAAVRDLPPTYRLACQTIVTDEDLLVEFTGEPGGA
A word on the stoichiometry N: it is the number of molecules, sites or subunits per partner or assembly. In turn, B1 gave a stoichiometry N (NifH2 dimers per FeSII2 dimer) in data set [1] of 1. In addition, the “stoichiometry N” value in the data set “SEC-MALS” turned out to be 2 chains per oligomer.
